± gives the uncertainty stated by the source.
Experiment: self-splicing fitness, log relative to wild type (ln ratio); higher = more splicing; Tetrahymena group I intron in knt gene, E. coli kanamycin selection, DiMSum; sequences stand for … in CUCUCU…GGAGGGAAAAGUUAUCAGGCAUGCACCUGGUAGCUAGUCUUUAAACCAAUAGAUUGCAUCGGUUUAAAAGGCAAGACCGUCAAAUUGCGGGAAAGGGGUCAACAGCCGUUCAGUACCAAGUCUCAGGGGAAACUUUGAGAUGGCCUUGCAAAGGGUAUGGUAAUAAGCUGACGGACAUGGUCCUAACCACGCAGCCAAGUCCUAAGUCAACAGAUCUUCUGUUGAUAUGGAUGCAGUUCACAGACUAAAUGUCGGUCGGGGAAGAUGUAUUCUUCUCAUAAGAUAUAGUCGGACCUCUCCUUAAUGGGAGCUAGCGGAUGAAGUGAUGCAACACUGGAGCCGCUGGGAACUAAUUUGUAUGCGAAAGUAUAUUGAUUAGUUUUGGAGUACUCGUGGUCG
Method in brief: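 Six replicate transformations of E. coli BL21(DE3) with a pET-22b(+) library were grown overnight at 37°C or 30°C. The library randomised all eight P1ex-region intron nucleotides, the intron lying in the knt kanamycin-resistance gene, and plates were LB agar with or without 25 μg/mL kanamycin plus 100 μg/mL carbenicillin, 50 μM IPTG and 0.2% rhamnose. Pooled colonies were amplicon-sequenced on an Illumina HiSeq 2500, and fitness is the DiMSum error-weighted combination of wild-type-normalised replicate fold changes, kanamycin versus none.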

Row | Sequence | self-splicing fitness (ln) (30 °C) | self-splicing fitness (ln) (37 °C)
1 | CGACAGCAAUAUUACGGGCG | -1.71 ± 0.17 | -1.81 ± 0.19
2 | UCUUAGCAAUAUUACGGCUG | -2.71 ± 0.28 | 0.118 ± 0.24
3 | CUAAAGCAAUAUUACGACCU | -4.28 ± 0.46 | -1.97 ± 0.22
4 | UUCAAGCAAUAUUACGGAAC | -3 ± 0.27 | –
5 | GGCUAGCAAUAUUACGCCGA | -1.8 ± 0.28 | -1.05 ± 0.25
6 | UCGAAGCAAUAUUACGUGUG | -1.43 ± 0.061 | -0.757 ± 0.073
7 | CACAAGCAAUAUUACGCCAU | -4 ± 0.23 | -3.48 ± 0.25
8 | ACCAAGCAAUAUUACGAGAG | -3.53 ± 0.2 | -2.3 ± 0.17
9 | AGUAAGCAAUAUUACGACCA | -0.203 ± 0.12 | 0.184 ± 0.21
10 | GCAUAGCAAUAUUACGCUUU | -3.17 ± 0.2 | -2.88 ± 0.18
11 | CUCCAGCAAUAUUACGGCAU | – | -2.56 ± 0.39
12 | CCCUAGCAAUAUUACGGAGA | -4.85 ± 0.46 | -2.68 ± 0.2
13 | CUACAGCAAUAUUACGGCCU | -4.36 ± 0.33 | -1.68 ± 0.21
14 | CGAGAGCAAUAUUACGAUCA | -2.63 ± 0.38 | -1.75 ± 0.38
15 | GAUAAGCAAUAUUACGGUUC | -3.24 ± 0.43 | -2.5 ± 0.31
16 | AAGCAGCAAUAUUACGUUCA | -0.676 ± 0.056 | 0.0201 ± 0.064
17 | CAUAAGCAAUAUUACGCGAC | -3.45 ± 0.33 | -3.11 ± 0.4
18 | AACGAGCAAUAUUACGGCCU | -1.16 ± 0.2 | -0.95 ± 0.2
19 | AGUUAGCAAUAUUACGUGCA | -1.6 ± 0.14 | -0.22 ± 0.15
20 | GGACAGCAAUAUUACGCUGG | -2.75 ± 0.28 | -2 ± 0.34
21 | CGAGAGCAAUAUUACGUAGU | -2.78 ± 0.3 | -1.7 ± 0.27
22 | UGAAAGCAAUAUUACGCGAC | -2.33 ± 0.42 | -2.08 ± 0.38
23 | GUUUAGCAAUAUUACGAAGA | – | -0.651 ± 0.34
24 | GAGAAGCAAUAUUACGCUUU | -3.35 ± 0.14 | -2.76 ± 0.14
25 | GGAGAGCAAUAUUACGUGUC | -3.21 ± 0.26 | -1.46 ± 0.24

Row | Sequence | self-splicing fitness (ln) (30 °C) | self-splicing fitness (ln) (37 °C)
26 | ACGUAGCAAUAUUACGAGCG | -1.53 ± 0.11 | -0.668 ± 0.12
27 | UGCAAGCAAUAUUACGCAAG | -2.59 ± 0.17 | -3.02 ± 0.32
28 | GAGCAGCAAUAUUACGAGUG | -2.8 ± 0.17 | -1.09 ± 0.19
29 | CCCCAGCAAUAUUACGGAGG | -4.83 ± 0.26 | -2.63 ± 0.16
30 | GCCGAGCAAUAUUACGGCUG | -3.31 ± 0.34 | -2.96 ± 0.38
31 | UUGAAGCAAUAUUACGUAGU | -1.97 ± 0.12 | -1.54 ± 0.12
32 | CUUAAGCAAUAUUACGACGU | -2.75 ± 0.16 | -1.44 ± 0.15
33 | UCACAGCAAUAUUACGACGU | -3.44 ± 0.16 | -3.53 ± 0.26
34 | UGCCAGCAAUAUUACGGAAC | -3.49 ± 0.34 | –
35 | GUAUAGCAAUAUUACGGCUC | 0.0185 ± 0.15 | 0.629 ± 0.15
36 | CAUCAGCAAUAUUACGAUCU | -0.778 ± 0.06 | -0.771 ± 0.087
37 | UCUAAGCAAUAUUACGACAA | -1.13 ± 0.11 | -1.33 ± 0.11
38 | CGUUAGCAAUAUUACGGCUA | -2.27 ± 0.37 | –
39 | UGUUAGCAAUAUUACGGUUG | -1.78 ± 0.14 | -1.2 ± 0.15
40 | ACCAAGCAAUAUUACGGACU | -0.029 ± 0.046 | 0.262 ± 0.062
41 | GUACAGCAAUAUUACGUGCC | -2.93 ± 0.13 | -2.54 ± 0.22
42 | AUCAAGCAAUAUUACGUUGA | -2.52 ± 0.1 | -1.8 ± 0.12
43 | UCAGAGCAAUAUUACGAGUC | -3.39 ± 0.35 | -3.09 ± 0.21
44 | AUCUAGCAAUAUUACGAUAG | -2.36 ± 0.33 | -1.16 ± 0.44
45 | CUCCAGCAAUAUUACGAAAG | -0.942 ± 0.11 | -1.41 ± 0.14
46 | GUCUAGCAAUAUUACGGAAA | -0.658 ± 0.12 | -0.44 ± 0.12
47 | GCUCAGCAAUAUUACGGCGG | -3.09 ± 0.29 | -1.46 ± 0.29
48 | UAGAAGCAAUAUUACGCCAU | -1.02 ± 0.4 | –
49 | AACUAGCAAUAUUACGUAAA | -1.87 ± 0.11 | -1.01 ± 0.11
50 | UUUAAGCAAUAUUACGGGAU | -3.4 ± 0.21 | -1.95 ± 0.2

Row | Sequence | self-splicing fitness (ln) (30 °C) | self-splicing fitness (ln) (37 °C)
51 | UGGUAGCAAUAUUACGGGUG | -1.26 ± 0.1 | -0.609 ± 0.08
52 | CUGUAGCAAUAUUACGAUAA | -3.19 ± 0.38 | -1.72 ± 0.27
53 | UCCAAGCAAUAUUACGAGCU | -3.58 ± 0.16 | -3 ± 0.25
54 | CACAAGCAAUAUUACGUGGC | -3.15 ± 0.21 | -2.64 ± 0.27
55 | ACAGAGCAAUAUUACGUAAC | -2.71 ± 0.11 | -3.27 ± 0.26
56 | GUUAAGCAAUAUUACGCUUG | -2.28 ± 0.14 | -0.983 ± 0.15
57 | GCCUAGCAAUAUUACGGCAU | -3.27 ± 0.27 | -0.94 ± 0.13
58 | UCGUAGCAAUAUUACGUCAC | -1.39 ± 0.18 | -2 ± 0.38
59 | GUGAAGCAAUAUUACGUAGA | -2.33 ± 0.17 | -0.683 ± 0.17
60 | AGUGAGCAAUAUUACGGGAU | -3.44 ± 0.26 | -1.7 ± 0.29
61 | GACGAGCAAUAUUACGUUAC | – | -0.804 ± 0.25
62 | GUGUAGCAAUAUUACGUCCC | -0.132 ± 0.21 | -0.385 ± 0.23
63 | UAAUAGCAAUAUUACGACUA | -0.456 ± 0.11 | -0.0379 ± 0.13
64 | AGUGAGCAAUAUUACGCAUG | -3.22 ± 0.29 | -3.25 ± 0.43
65 | CGGUAGCAAUAUUACGCUGC | – | -2.17 ± 0.49
66 | GGUAAGCAAUAUUACGGACU | -1.43 ± 0.17 | -0.246 ± 0.2
67 | AGGAAGCAAUAUUACGAUCC | -0.54 ± 0.16 | -0.331 ± 0.17
68 | UGGAAGCAAUAUUACGACUA | -0.154 ± 0.074 | 0.331 ± 0.11
69 | UCUAAGCAAUAUUACGUACC | – | -1.04 ± 0.47
70 | CGUGAGCAAUAUUACGGGAU | -3.49 ± 0.22 | -2.24 ± 0.21
71 | GACUAGCAAUAUUACGCGCU | -0.916 ± 0.095 | -0.878 ± 0.12
72 | CGGUAGCAAUAUUACGGUCG | -2.62 ± 0.21 | -1.65 ± 0.25
73 | UAAAAGCAAUAUUACGCAAG | -1.48 ± 0.06 | -0.639 ± 0.073
74 | UCAGAGCAAUAUUACGAGUA | -3.89 ± 0.46 | -1.01 ± 0.14
75 | GUCGAGCAAUAUUACGAGUA | -2.24 ± 0.45 | -1.13 ± 0.25

Row | Sequence | self-splicing fitness (ln) (30 °C) | self-splicing fitness (ln) (37 °C)
76 | UUGGAGCAAUAUUACGUCCU | -2.05 ± 0.2 | -0.535 ± 0.17
77 | UCAGAGCAAUAUUACGCCGA | -3.18 ± 0.33 | -1.63 ± 0.23
78 | UGUCAGCAAUAUUACGAGCC | -1.74 ± 0.24 | -0.631 ± 0.27
79 | GCUAAGCAAUAUUACGCUAG | -2.94 ± 0.35 | -3.64 ± 0.4
80 | GACGAGCAAUAUUACGUUUG | -3.1 ± 0.22 | -1.94 ± 0.26
81 | GGAUAGCAAUAUUACGUAAA | -2.12 ± 0.17 | -1.42 ± 0.2
82 | UAUUAGCAAUAUUACGAUAU | -3.81 ± 0.26 | -2.11 ± 0.2
83 | ACGGAGCAAUAUUACGCUGU | – | -2.56 ± 0.25
84 | AAACAGCAAUAUUACGGACC | -1.94 ± 0.078 | -1.08 ± 0.095
85 | GGGAAGCAAUAUUACGUGCC | – | -0.148 ± 0.38
86 | CAGCAGCAAUAUUACGUGAU | -3.66 ± 0.15 | -1.78 ± 0.14
87 | CCAUAGCAAUAUUACGCUGC | -3.84 ± 0.3 | -2.25 ± 0.27
88 | UUGAAGCAAUAUUACGGCUA | -0.00358 ± 0.093 | -0.295 ± 0.096
89 | AAUCAGCAAUAUUACGCGAC | -1.17 ± 0.085 | -1.96 ± 0.15
90 | AACAAGCAAUAUUACGUAGC | -3.1 ± 0.09 | -2.07 ± 0.1
91 | UUACAGCAAUAUUACGACUU | -1.06 ± 0.11 | -0.932 ± 0.11
92 | UAAGAGCAAUAUUACGUGCU | -4.59 ± 0.31 | -2.09 ± 0.27
93 | AGUGAGCAAUAUUACGAUCU | -1.7 ± 0.14 | -1.13 ± 0.15
94 | AUCAAGCAAUAUUACGGUGC | -3.24 ± 0.17 | -3.12 ± 0.24
95 | UUCAAGCAAUAUUACGCAGU | -3.44 ± 0.27 | -3.62 ± 0.42
96 | AAUUAGCAAUAUUACGCGUG | -0.374 ± 0.066 | -0.101 ± 0.083
97 | AAGGAGCAAUAUUACGUGAG | -3.51 ± 0.25 | -2.5 ± 0.21
98 | ACGUAGCAAUAUUACGGGCU | -1.15 ± 0.063 | -1.18 ± 0.1
